What all share (experiment): EC50 of free RNA motif oligo competing protein binding to immobilised probe
In data set [1] the target is PABPC1 (UniProt P11940). Put shortly: (§1)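 To obtain EC50, data were fitted with a four-parameter log-logistic model; Kd was then EC50 multiplied by a protein-dependent depletion factor. Beforehand, free RNA oligos (0 nM to 30 μM) were pre-incubated with HEK293-FT lysate (2.5 mg protein/well) for 1 h at 4°C. The lysate then spent 30 min at 4°C with the same 5′-amino-C6 oligos coupled to NHS-Sepharose beads, and bound proteins were quantified by label-free LC-MS/MS, normalised to the control.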

Data set [2] has as its target T1, CPSF3 (UniProt Q9UKF6).
T1 sequence: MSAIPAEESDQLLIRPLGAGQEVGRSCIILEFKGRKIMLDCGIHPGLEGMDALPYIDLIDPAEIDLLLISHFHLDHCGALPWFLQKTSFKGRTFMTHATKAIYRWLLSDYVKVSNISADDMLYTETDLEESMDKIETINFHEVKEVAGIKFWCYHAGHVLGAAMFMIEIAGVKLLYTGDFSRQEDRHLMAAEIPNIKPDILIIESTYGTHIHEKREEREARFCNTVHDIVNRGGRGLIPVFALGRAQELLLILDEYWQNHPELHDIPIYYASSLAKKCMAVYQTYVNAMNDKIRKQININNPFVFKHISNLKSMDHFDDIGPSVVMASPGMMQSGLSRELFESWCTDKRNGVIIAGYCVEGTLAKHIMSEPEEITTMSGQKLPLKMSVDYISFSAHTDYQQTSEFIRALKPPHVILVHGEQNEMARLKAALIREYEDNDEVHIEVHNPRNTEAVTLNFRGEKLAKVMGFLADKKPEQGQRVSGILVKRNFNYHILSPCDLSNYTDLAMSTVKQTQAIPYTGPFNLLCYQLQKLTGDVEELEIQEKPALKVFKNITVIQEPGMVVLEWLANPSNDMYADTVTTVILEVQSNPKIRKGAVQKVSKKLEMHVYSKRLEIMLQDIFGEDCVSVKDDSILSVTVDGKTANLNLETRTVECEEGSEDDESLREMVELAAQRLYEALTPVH
Put shortly:
as §1

Data set [3] has as its target T2, WDR33 (UniProt Q9C0J8).
T2 sequence: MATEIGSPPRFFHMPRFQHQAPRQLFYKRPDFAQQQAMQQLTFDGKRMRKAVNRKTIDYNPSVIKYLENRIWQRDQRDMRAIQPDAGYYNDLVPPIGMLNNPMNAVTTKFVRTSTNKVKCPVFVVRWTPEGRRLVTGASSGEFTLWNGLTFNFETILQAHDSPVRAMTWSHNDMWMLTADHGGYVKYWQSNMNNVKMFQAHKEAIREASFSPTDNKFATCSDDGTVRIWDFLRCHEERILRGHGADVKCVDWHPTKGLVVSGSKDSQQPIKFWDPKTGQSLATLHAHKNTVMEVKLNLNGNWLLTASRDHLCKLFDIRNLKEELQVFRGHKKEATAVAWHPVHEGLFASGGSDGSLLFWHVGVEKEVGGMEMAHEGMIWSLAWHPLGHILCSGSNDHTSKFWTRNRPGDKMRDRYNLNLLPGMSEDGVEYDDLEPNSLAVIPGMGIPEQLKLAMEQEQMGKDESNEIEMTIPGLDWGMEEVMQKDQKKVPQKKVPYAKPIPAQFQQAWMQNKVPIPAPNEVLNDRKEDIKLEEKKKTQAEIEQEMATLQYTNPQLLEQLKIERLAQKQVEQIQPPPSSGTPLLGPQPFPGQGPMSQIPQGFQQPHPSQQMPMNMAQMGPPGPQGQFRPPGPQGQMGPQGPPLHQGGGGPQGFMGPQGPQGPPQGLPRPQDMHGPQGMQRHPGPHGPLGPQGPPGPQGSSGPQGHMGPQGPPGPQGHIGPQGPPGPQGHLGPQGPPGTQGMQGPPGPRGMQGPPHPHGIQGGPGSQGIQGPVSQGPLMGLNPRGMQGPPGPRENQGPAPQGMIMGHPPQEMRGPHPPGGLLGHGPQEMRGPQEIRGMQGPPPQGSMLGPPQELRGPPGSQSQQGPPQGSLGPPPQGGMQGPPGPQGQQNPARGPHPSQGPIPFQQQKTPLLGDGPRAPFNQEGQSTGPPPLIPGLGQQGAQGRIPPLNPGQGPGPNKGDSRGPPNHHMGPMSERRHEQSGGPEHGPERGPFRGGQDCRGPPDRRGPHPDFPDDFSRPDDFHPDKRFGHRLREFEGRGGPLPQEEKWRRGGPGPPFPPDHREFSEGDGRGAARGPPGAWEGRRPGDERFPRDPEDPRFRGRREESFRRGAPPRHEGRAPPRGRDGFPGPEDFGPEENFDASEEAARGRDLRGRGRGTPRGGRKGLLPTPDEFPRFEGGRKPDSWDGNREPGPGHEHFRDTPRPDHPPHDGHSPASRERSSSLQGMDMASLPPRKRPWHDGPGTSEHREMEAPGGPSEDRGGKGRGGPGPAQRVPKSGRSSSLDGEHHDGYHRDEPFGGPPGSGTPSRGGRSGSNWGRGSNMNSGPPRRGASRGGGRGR
Put shortly:
as §1

For data set [4], the target named is ELAVL1 (UniProt Q15717). Put shortly:
as §1

Data set [5] concerns the target ZCCHC24 (UniProt Q8N2G6). The essentials:
as §1

The text below walks through data of the supplement of paper PMC6379048.

Sequence of PABPC1 (P11940 whole entry): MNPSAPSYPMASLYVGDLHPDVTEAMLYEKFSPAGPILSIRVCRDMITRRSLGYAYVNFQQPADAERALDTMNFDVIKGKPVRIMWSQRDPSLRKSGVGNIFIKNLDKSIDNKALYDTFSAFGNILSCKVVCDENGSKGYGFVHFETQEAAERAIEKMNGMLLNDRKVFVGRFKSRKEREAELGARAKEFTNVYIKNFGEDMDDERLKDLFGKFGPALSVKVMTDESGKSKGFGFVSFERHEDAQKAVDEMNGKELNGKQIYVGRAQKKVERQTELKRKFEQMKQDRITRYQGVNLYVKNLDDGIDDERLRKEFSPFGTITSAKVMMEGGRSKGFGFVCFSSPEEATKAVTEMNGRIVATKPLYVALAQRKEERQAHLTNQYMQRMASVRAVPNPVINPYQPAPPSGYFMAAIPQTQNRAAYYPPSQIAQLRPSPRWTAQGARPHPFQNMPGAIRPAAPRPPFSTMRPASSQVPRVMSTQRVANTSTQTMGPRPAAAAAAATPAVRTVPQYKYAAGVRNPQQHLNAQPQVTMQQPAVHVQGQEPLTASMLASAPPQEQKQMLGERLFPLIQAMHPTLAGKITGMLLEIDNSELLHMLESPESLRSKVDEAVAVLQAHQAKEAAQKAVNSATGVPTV
Sequence of ELAVL1 (Q15717 whole entry): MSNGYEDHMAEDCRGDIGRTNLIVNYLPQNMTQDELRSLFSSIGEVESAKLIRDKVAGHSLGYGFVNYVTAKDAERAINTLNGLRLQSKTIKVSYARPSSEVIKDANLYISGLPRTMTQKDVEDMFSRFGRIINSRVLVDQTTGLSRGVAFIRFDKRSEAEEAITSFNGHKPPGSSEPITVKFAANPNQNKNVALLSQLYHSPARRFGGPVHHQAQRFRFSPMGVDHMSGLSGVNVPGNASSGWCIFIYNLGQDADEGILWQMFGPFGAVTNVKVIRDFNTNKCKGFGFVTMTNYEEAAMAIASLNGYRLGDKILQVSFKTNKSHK
Sequence of ZCCHC24 (Q8N2G6 whole entry): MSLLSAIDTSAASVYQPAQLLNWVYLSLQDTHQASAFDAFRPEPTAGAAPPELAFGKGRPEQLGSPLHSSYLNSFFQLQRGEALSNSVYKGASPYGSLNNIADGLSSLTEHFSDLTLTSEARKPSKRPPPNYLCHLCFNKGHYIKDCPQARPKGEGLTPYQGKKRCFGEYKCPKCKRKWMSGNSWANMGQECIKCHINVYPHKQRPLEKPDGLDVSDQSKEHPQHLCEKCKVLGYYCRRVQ

Turning to AAUAAA, the EC50 amounted to 10100 nM in data set [1]; 57.4 nM in data set [2]; 64.6 nM in data set [3]; 5060 nM in data set [4]; 545 nM in data set [5].
Sequence CUGUCCU registered an EC50 in data set [1] of 199 nM.
Consider UAUUUAU, for which the concentration giving a half-maximal response (EC50) turned out to be 598 nM in data set [2], 960 nM in data set [3], 3040 nM in data set [4] and 2520 nM in data set [5].

As a reminder, the EC50 is the midpoint of the concentration-response curve. The low end stands for higher potency in that assay, the high end for lower potency in that assay.
